Assay results from patent publication US20250066499A1 (SUNSHINE GUOJIAN PHARMACEUTICAL SHANGHAI, published 2025).
Numbering of substitutions follows the chain as printed.

Assays:
CD73-ND-E143A = target: T1, CD73-ND-E143A (human, UniProt P21589 27-317); assay: ELISA, high plateau value (OD 450 nm)
T1 construct: Alanine mutant of CD73-ND
T1 sequence: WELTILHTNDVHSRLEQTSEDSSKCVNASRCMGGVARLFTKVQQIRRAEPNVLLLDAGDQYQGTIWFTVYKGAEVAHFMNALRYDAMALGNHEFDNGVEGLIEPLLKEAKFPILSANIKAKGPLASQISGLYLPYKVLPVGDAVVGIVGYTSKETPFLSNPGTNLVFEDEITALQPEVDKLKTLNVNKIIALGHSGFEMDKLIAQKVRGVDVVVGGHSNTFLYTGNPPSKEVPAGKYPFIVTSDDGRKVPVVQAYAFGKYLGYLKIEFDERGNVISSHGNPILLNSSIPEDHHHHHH
Description: (§1) The ELISA plates were coated with SA protein diluted to 1.5 μg/mL in coating buffer (50 mM carbonate coating buffer, pH 9.6) and incubated overnight at 4° C. The supernatant was discarded, and the plates were washed three times with PBST. Then, 5% skimmed milk powder prepared with PBS was added for blocking and the plates were incubated for 2 h at 37° C. After washing the plates once with PBST, CD73-biotin protein (prepared by biotinylating CD73-His protein according to the EZ-Link NHS-Biotin Reagent instructions) was diluted to 0.5 μg/mL and added at 100 μL/well for incubation at room temperature for 1 h. The plates were washed three times with PBST, and the prepared murine-derived monoclonal antibodies against human CD73 were serially diluted with 1% BSA buffer prepared with PBST and added to the ELISA plates at 100 μl/well. The plates were incubated at 37° C. for 1 h. After washing the plates three times with PBST, HRP-labeled goat anti-mouse IgG secondary antibody was added and the plates were incubated for 30 min at 37° C. After washing the plates three times with PBST, the residual droplets were patted dry on absorbent paper as much as possible. Then, 100 μl of TMB color developing solution was added to each well, and the plates were incubated in the dark at room temperature for 5 min for color development. Subsequently, 50 μl of 2M H₂SO₄ stop solution was added to each well to terminate the substrate reaction. The OD values were read at 450 nm using a multimode microplate reader to analyze the binding ability of the tested antibodies to the target antigen human CD73-His.
(§2) Referring to the experimental method in Example 3, the affinity of 48A11-HuV33 for various mutant proteins of CD73-ND was determined. The SA protein was diluted to 1 μg/mL for coating the ELISA plates, and the biotinylated CD73 protein (CD73-biotin) was used at a concentration of 0.1 μg/mL.

CD73-ND-V144A = target: T2, CD73-ND-V144A (human, UniProt P21589 27-317); assay: ELISA, high plateau value (OD 450 nm)
T2 construct: Alanine mutant of CD73-ND
T2 sequence: T1 sequence with A143E, V144A
Description: as §1, §2

CD73-ND-K180A = target: T3, CD73-ND-K180A (human, UniProt P21589 27-317); assay: ELISA, high plateau value (OD 450 nm)
T3 construct: Alanine mutant of CD73-ND
T3 sequence: T1 sequence with A143E, K180A
Description: as §1, §2

CD73-ND-P139A = target: T4, CD73-ND-P139A (human, UniProt P21589 27-317); assay: ELISA, biotinylated antigen on streptavidin plate
T4 construct: Alanine mutant of CD73-ND
T4 sequence: T1 sequence with P139A, A143E
Description: as §1, §2

CD73-ND-D142A = target: T5, CD73-ND-D142A (human, UniProt P21589 27-317); assay: ELISA, biotinylated antigen on streptavidin plate
T5 construct: Alanine mutant of CD73-ND
T5 sequence: T1 sequence with D142A, A143E
Description: as §1, §2

CD73-ND-L184A = target: T6, CD73-ND-L184A (human, UniProt P21589 27-317); assay: ELISA, biotinylated antigen on streptavidin plate
T6 construct: Alanine mutant of CD73-ND
T6 sequence: T1 sequence with A143E, L184A
Description: as §1, §2

B1: 48A11-HuV33 (antibody, human IgG4, V domains shown)
VH: QVQLVQSGAEVKKPGASVKVSCKASGYTFTSYWMHWVRQAPGQGLEWIGEINPSIGRTNYNEKFKSRVTLTRDTSTSTAYMELSSLRSEDTAVYYCARRVYGTMDYWGQGTLVTVSS
VL: DIQMTQSPSSLSASVGDRVTITCKASQDINSYLSWFQQKPGKSPKLLIYRANIWVDGVPSRFSGSGSGQDYTFTISSLQPEDIATYYCLQYDELYTFGQGTKVEIK
notes: Humanized
Top (CD73-ND-E143A): 1.77 | Top (CD73-ND-V144A): 1.69 | Top (CD73-ND-K180A): 1.74 | EC50 (CD73-ND-P139A): 4340 pM | EC50 (CD73-ND-D142A): 344 pM | EC50 (CD73-ND-L184A): 612 pM
